Assay results: paper PMC4507941 (PLoS ONE, 2015)
Entries after “also recorded” stand apart in the source; their conditions may differ. Read-outs that look alike come from different tables or passages of the source. Values belong to the substance of their own block, whether it stands above or below them. Where no end group is shown, it is not given here.

Tests used:
recombinant pitrilysin = assay: 40 nM pitrilysin in 50 mM Tris/HCl buffer (pH 7.4) containing 200 mM NaCl; conditions: human, 37°C, up to 60'
pitrilysin [1] = assay: pitrilysin (400 nM) added to hIAPP oligomers generated with rat cardiac myocytes or from HIP rat cardiac myocytes; conditions: human, 37°C, up to 1hr
pitrilysin [2] = assay: 40 nM pitrilysin added to hIAPP preincubated at 37°C to induce oligomer formation; conditions: human, up to 1hr
pitrilysin [3] = biological target: T1, pitrilysin (Homo sapiens, UniProt Q5JRX3); assay: Cleavage of peptide substrates by recombinant pitrilysin (HPLC substrate disappearance; KM as alternate substrate inhibitor of a fluorogenic peptide); format: biochemical; conditions: for Degradation of monomeric IAPP by pitrilysin: monomeric peptide 20 μM, HPLC
T1 construct: made in house; host or cells: Sf9 cells
T1 sequence (Q5JRX3 29-1037): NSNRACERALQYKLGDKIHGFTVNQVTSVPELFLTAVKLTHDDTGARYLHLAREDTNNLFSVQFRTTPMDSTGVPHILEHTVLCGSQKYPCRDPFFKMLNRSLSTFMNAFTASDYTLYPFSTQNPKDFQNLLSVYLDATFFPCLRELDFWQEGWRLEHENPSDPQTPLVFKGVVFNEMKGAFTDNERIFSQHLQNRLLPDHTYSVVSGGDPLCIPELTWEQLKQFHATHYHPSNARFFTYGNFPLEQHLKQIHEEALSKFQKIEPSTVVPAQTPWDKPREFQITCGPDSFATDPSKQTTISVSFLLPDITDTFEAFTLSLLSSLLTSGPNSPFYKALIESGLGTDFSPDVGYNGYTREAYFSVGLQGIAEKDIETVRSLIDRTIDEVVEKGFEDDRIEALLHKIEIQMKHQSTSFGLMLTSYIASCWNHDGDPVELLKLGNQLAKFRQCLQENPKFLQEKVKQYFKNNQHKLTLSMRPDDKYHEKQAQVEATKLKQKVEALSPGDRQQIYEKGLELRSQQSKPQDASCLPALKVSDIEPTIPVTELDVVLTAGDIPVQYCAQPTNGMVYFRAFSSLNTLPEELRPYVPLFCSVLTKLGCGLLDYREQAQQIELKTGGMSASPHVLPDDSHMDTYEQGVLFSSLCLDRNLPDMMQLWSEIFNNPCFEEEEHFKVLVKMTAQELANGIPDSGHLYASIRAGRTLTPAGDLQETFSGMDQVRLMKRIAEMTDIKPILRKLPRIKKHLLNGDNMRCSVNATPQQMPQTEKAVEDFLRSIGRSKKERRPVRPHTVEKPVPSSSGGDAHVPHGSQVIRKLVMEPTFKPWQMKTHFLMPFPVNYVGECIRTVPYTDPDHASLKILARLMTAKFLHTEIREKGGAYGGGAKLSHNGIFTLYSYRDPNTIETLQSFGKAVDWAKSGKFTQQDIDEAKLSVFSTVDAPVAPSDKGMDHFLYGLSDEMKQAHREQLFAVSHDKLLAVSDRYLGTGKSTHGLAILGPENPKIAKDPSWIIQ
Experimental: Pitrilysin was produced in Sf9 cells (ATCC, Manassas, VA, USA) and purified as described.. The purity of recombinant pitrilysin is greater than 97% as judged from Coomassie blue stained SDS-PAGE gels using NIH ImageJ software (S1 Fig).
Monomeric hIAPP (20 μM) was incubated with 40 nM pitrilysin in 50 mM Tris/HCl buffer (pH 7.4) containing 200 mM NaCl at 37°C for various times and analyzed by reverse phase HPLC [22, 23]. hIAPP and its cleavage products were collected manually and identified by mass spectrometry.
(§1) Having established IAPP as a substrate of pitrilysin, the kinetic properties of the reaction were determined. The rate of hIAPP hydrolysis was determined by measuring the disappearance of the substrate by HPLC, while k cat was determined based on the linear initial rate of hIAPP hydrolysis at a saturating hIAPP concentration (20 μM) using a molecular mass of 117 kDa for pitrilysin. The KM for hIAPP was determined by using it as an alternate substrate inhibitor of the hydrolysis of the fluorogenic peptide Abz-GGYRRGQ-EDDnp. The kcat and KM values of pitrilysin with hIAPP are 13.5 ± 0.1 min^-1 and 0.38 ± 0.01 μM, respectively (Table 1).

pitrilysin [4] = biological target: T1, pitrilysin; assay: In vitro cleavage of oligomeric hIAPP by pitrilysin (SDS-PAGE, Western blot); format: biochemical; conditions: hIAPP oligomers (12, 28, 36, 40 kDa and large oligomers), 40 or 400 nM pitrilysin, 37°C, 1 hr
Experimental: hIAPP was incubated at 37°C for 1 hr. with gentle shaking to induce hIAPP oligomerization. To produce low molecular weight oligomers, hIAPP oligomerization was initiated in saline solution at 37°C using 50 μM recombinant hIAPP and then incubated with myocytes for 2 hours at room temperature. Similarly cardiac myocytes from hIAPP expressing rats (HIP rats) contain amylin oligomers and thus both were used. Pitrilysin was added to oligomers and incubated for 1 hour at 37°C. The reaction was then subjected to SDS-PAGE and Western blotting with A11 antisera for large oligomer or with mouse anti-hIAPP for detection of monomers and small oligomers. Adult cardiac myocytes were isolated from wild-type Sprague-Dawley rats and from HIP rats as described.
Oligomers of hIAPP were generated from hIAPP incubated with rat cardiac myocytes and then incubated with pitrilysin (400 nM) at 37°C for 1 hr. Reactions were analyzed by Western blot analysis using mouse monoclonal anti-human amylin antibody E-5. b. […] Reactions were analyzed by Western blots using rabbit anti-IAPP that recognizes monomeric IAPP or rabbit anti-oligomer antibody A11. rIAPP (20 μM) was treated at the same condition as a negative control.

[5] = tested on: Insulin-degrading enzyme (IDE); assay: Cleavage of peptide substrates by insulin-degrading enzyme (IDE), determined as for pitrilysin; format: biochemical; conditions: mean ± SEM
Experimental: as §1
We therefore compared the enzymatic properties of these two enzymes in terms of hIAPP degradation. The kcat and KM values for IDE with hIAPP were determined as above yielding values of 294 ± 0.4 min^-1 and 3.11 ± 0.20 μM, respectively. […] (Table 1). Thus relative to IDE, pitrilysin is a more specific IAPP degrading enzyme.

[6] = tested on: Insulin-degrading enzyme (IDE); conditions: cited from earlier work
Experimental: Table 1 Comparison of enzymatic characters of pitrilysin and IDE towards different substrates. | column: kcat (min^-1); KM (μM); kcat/KM (min^-1μM^-1)

pitrilysin [7] = biological target: T1, pitrilysin; conditions: ref [23], cited from earlier work
Experimental: as §1, with “Table 1 Comparison of enzymatic characters of pitrilysin and IDE towards different substrates. | column: kcat (min^-1); KM (μM); kcat/KM (min^-1μM^-1) || Having” for “Having”, “m ...” for “min^-1 and 0.38 ± 0.01 μM, respectively (Table 1).”

[8] = 40 nM pitrilysin, 50 mM Tris/HCl pH 7.4, 200 mM NaCl, 37°C
[9] = 20 μM hIAPP, 40 nM pitrilysin, 37°C, HPLC peaks identified by mass spectrometry

Substance: KCNTATCATQRLANFLVHSSNNFGAILSSTNVGSNTY-NH2
- cleaved bond (recombinant pitrilysin): Phe15-Leu16, first_seen; also recorded: Gly24-Ala25, major; also recorded: Ala25-Ile26, major; also recorded: Arg11-Leu12, minor; also recorded: Leu12-Ala13, minor; also recorded: Ala13-Asn14, minor; also recorded: Asn14-Phe15, minor
- not cleaved (pitrilysin [1]): inability of pitrilysin to reduce the amount of hIAPP oligomers of 12 kDa, 28 kDa, 36 kDa, or 40 kDa (1 hr)
- not cleaved (pitrilysin [2]): not able to degrade large hIAPP oligomers (1hr)

- Degradation of monomeric IAPP by pitrilysin (pitrilysin [3]; [8]): degrades monomeric rat IAPP
Substance: rIAPP: rodent (rat) islet amyloid polypeptide, does not form oligomers

Substance: islet amyloid polypeptide (KCNTATCATQRLANFLVHSSNNFGAILSSTNVGSNTY; not fully specified (C-terminus); cysteine pairing not given here) [hIAPP, Human islet amyloid polypeptide (IAPP, amylin), from Anaspec; substrate of pitrilysin and IDE]
- Degradation of oligomeric hIAPP by pitrilysin (pitrilysin [4]): not able to degrade; also recorded: does not degrade
- kcat ([5]; determined as for pitrilysin (HPLC, saturating hIAPP)): 4.9 ± 0.0067 s⁻¹
- Km ([5]; determined as for pitrilysin (alternate substrate inhibitor)): 3.11 ± 0.2 µM
- Initial cleavage sites on hIAPP by pitrilysin (pitrilysin [3]; [9]): Phe^15-Leu^16, Gly^24-Ala^25 and Ala^25-Ile^26
- Secondary (subsequent) cleavage sites on hIAPP by pitrilysin (pitrilysin [3]; [9]): Arg^11-Leu^12, Leu^12-Ala^13, Ala^13-Asn^14 and Asn^14-Phe^15
- Degradation of monomeric IAPP by pitrilysin (pitrilysin [3]; [8]): hIAPP degradation is indeed catalyzed by pitrilysin
- Km (pitrilysin [3]; pitrilysin, hIAPP as alternate substrate inhibitor of hydrolysis of fluorogenic peptide Abz-GGYRRGQ-EDDnp, mean ± SEM): 0.38 ± 0.01 µM
- kcat (pitrilysin [3]; pitrilysin, linear initial rate of hIAPP hydrolysis at saturating 20 μM, substrate disappearance by HPLC, 50 mM Tris/HCl pH 7.4, 200 mM NaCl, 37°C, molecular mass 117 kDa, mean ± SEM): 0.225 ± 0.0017 s⁻¹

Substance: amyloid β peptide 1–40 [Aβ 40]
- Km ([6]; ref [43]): 0.87 ± 0.1 µM
- kcat ([6]; ref [43]): 3.68 ± 0.183 s⁻¹
- kcat/KM ([6]; ref [43]): 250 min^-1μM^-1
- kcat/KM (pitrilysin [7]; listed as Aβ1–40): 1.94 min^-1μM^-1
- Km (pitrilysin [7]): 1.7 ± 0.1 µM
- kcat (pitrilysin [7]): 0.055 ± 0.0017 s⁻¹

Substance: Insulin
- Km ([6]; ref [44]): 0.13 ± 0.02 µM
- kcat ([6]; ref [44]): 0.00933 ± 0.00017 s⁻¹
- kcat/KM ([6]; ref [44]): 4.3 min^-1μM^-1
- Km (pitrilysin [7]): 54.5 ± 5.5 µM
- kcat (pitrilysin [7]): 0.0033 ± 0 s⁻¹
- kcat/KM (pitrilysin [7]): 0.0037 min^-1μM^-1
